Here are results for 13 proteins from patent US20250027068.

B1: PRT-248 (protein)
chain: MVTSVWTKGVTPPTNFTYGEDVLHAPYVANQGWYDITKTFNGKDDLLCGAATAGNMLHWWFDQNKEQIENYLKKHPEKQKINFNGEQMFDVKEAIDTKDSQLDSKLFEYFKEKAFPNLSTKHLGVFPDHVIDMFINGYRLSLLNHGPTPVKRGSKDPRGGIFDAVFTRGDQSKLLTNRHDFKEKTLKEISDLIKQELTEGKALGISHTYANVRINHVINLWGADFDAEGNLEAIYVTDSDSNASIGMKKYFVGVNSSGKVAISAKEIEEDNIGAQVLGLFTLSTGQDIWNQTN
B2: PRT-264 (protein)
chain: MVTSVWTKGVTPPTNFTYGEDVLHAPYVANQGWYDITKLFNGKDNLLCGAATAGNMLHWWFDQNKEQIENYLKKHPEKQKINFNGEQLFDVKEAIDTKDSQLDSKLFDYFKEKAFPYLSTKHLGVFPDHVIDMFINGYRLSLTNHGPTPVKRGSKDKRGGIFDAVFTRGVQSKLLTNRHDFKEKTLKEISDLIKQELTEGKALGISHTYANVRINHVINLWGADFDAEGNLEAIYVTDSDTNPSIGMKKYFVGVNSSGKVAISAKEIEEDNIGAQVLGLFTLSTGQDIWNQTN
B3: PRT-256 (protein)
chain: MVTSVWTKGVTPPTNFTYGEDVLHAPYVANQGWYDITKLFNGKDDLLCGAATAGNMLHWWFDQNKEQIENYLKKHPEKQKINFNGEQMFDVKEAIDTKDSQLDSKLFEYFLEKAFPNLSTKHLGVFPDHVIDMFINGYRLSLLNHGPTPVKRGSKDPRGGIFDAVFTRGDQSKLLTNRHDFKEKTLKEISDLIKQELTEGKALGISHTYANVGINHVINLWGADFDAEGNLEAIAVTDSDSNASIGMKKYFVGVNSSGKVAISAKEIEEDNIGAQVLGLFTLSTGQDIWNQTN
B4: PRT-588 (protein)
chain: MRNQTTTYSEVTPSHITSVWTKGVTPPEQFIQGEDVFHAPYIANQGWYDITKTFNGKDDLLCGAATAGNMLHWWFDQNKEQIENYLKKHPEKQKIMFNNEEMFDLREAINTKDSQTDSALFSYFKDKAFPNLSARRLGVMPDHVLDMFINGYYLNVGNTDKTDVNRGTKDLRGGIFDAVFTRGDQSKLLTARHDLKNKTLKEISDLIKQELTEGKALALSHTYANVRINHVINLWGADFDAEGNLEAIYVTDSDSNASIGMKKYYVGVNSAGKVAISAKKIEGDNIGAQVLGLFTLSTGQDIWQQTNLEHHHHHH
B5: PRT-528 (protein)
chain: MANQEIRYSEETPKTITSVWTKGVTPPTDFIQNEDVLHAPYIANQGWYDITKTFNGKDDLLCGAATAGNMLHWWFDQNKEEIENYLKKHPEKQKINFNGEQMFDVKEAIDTKDSQTDSALFEYFKDKAFPNLSTKHLGVMPDLVLDMFINGYYLSLGKHGPTPVKRGTKDPRGGIFDAVFTRGDQSKLLTARHDFKEKTLNEISDLIKQELTEGKALALSHTYANVRINHVINLWGADFNSEGNLEAIYVTDSDSNASIGMKKYYVGVNAAGKVAISAKEIEGDNIGAQVLGLFTLSTGQDIWEQTNLEHHHHHH
B6: PRT-527 (protein)
chain: MANQEIRYSEETPKTITSVWTKGVTPPTDFIKNEDVLHAPYIANQGWYDITKTFNGKDDLLCGAATAGNMLHWWFDQNKEEIENYLKKHPEKQKINFNGEQMFDVKEAIDTKDSQTDSALFEYFKDKAFPNLSTKHLGVMPDLVLDMFINGYYLSLGKHGPTPVKRGTKDPRGGIFDAVFTRGDQSKLLTSRHDFKEKTLNEISDLIKQELTEGKALALSHTYANVRINHVINLWGADFNSEGNLEAIYVTDSDSNASIGMKKYYVGVNSAGKVAISAKEIEGDNIGAQVLGLFTLSTGQDIWEQTNLEHHHHHH
B7: PRT-547 (protein)
chain: MANQEIRYSEETPKTITSVWTKGVTPPTDFIQNEDVLHAPYIANQGWYDITKTFNGKDDLLCGAATAGNMLHWWFDQNKEEIENYLKKHPEKQKINFNGEQMFDVKEAIDTKDSQTDSALFEYFKDKAFPYLSTKHLGVFPDHVIDMFINGYRLSLTNHGPTPVKRGTKDPRGGIFDAVFTRGDQSKLLTARHDFKEKTLNEISDLIKQELTEGKALGLSHTYANVRINHVINLWGADFNSEGNLEAIYVTDSDSNASIGMKKYYVGVNAAGKVAISAKEIEGDNIGAQVLGLFTLSTGQDIWEQTNLEHHHHHH
B8: PRT-272 (protein)
chain: MVTSVWTKGVTPPTDFIYGEDVLHAPYKAGQGWYDITKLFNGKDDLLCGAATAGNMLHWWFDQNKEQIENYLKKHPEKQKINFNGEQMFDVKEAIDTKDSQLDSKLFEYFLEKAFPYLSTKHLGVFPDHVIDMFINGYRLSLTNHGPTPVKRGSKDPRGGIFDAVFTRGDQSKLLTNRHDLKNKTLKEISDLIKQELTEGKALGISHTYANVRINHVINLWGADFDAEGNLEAIAVTDSDSNASIGMKKYFVGVNSSGKVAISAKEIEEDNIGAQVLGLFTLSTGQDIWNQTN
B9: PRT-599 (protein)
chain: MANQEIRYSEETPSTITSVWTKGVTPPTDFIQNEDVLHAPYIANQGWYDITKTFNGKDDLLCGAATAGNMLHWWFDQNKEQIENYLKKHPEKQKINFNGEQMFDVKEAIDTKDSQTDSALFEYFKDKAFPYLSTKHLGVFPDHVIDMFINGYRLSLTNHGPTPVKRGTKDPRGGIFDAVFTRGDQSKLLTSRHDFKEKTLNEISDLIKQELTEGKALGLSHTYANVRINHVINLWGADFNAEGNLEAIYVTDSDSNASIGMKKYYVGVNSAGKVAISAKEIKGDNIGAQVLGLFTLSTGQDIWNQTNLEHHHHHH
B10: PRT-542 (protein)
chain: MANQEIRYSKNENPNVTIKWVHGIGEPTQAEKEKIEFWWYETTTTKFFNNRKVDHLGDGNQCWAKTDSNMLHWWFVQNEENINQYIEKKNITGKINFNGEQMFDVKEGIDDNQEPEKSYIANTFRTKKAHNLSTKHKGDYIINGLSWYLYGLNNFKNAHGPTPVKKKPKFYGPALFKDVFNRGDGNTPIIVETDFKEYTKKEFEDTLSAALDSKKAVGINIYGSNVDYQHAITLWGAAFDEEENIIAIYVVDNNFKFENRIFPYGIWYQKEGRPYLFNYEINSFVKNRYVGEITTLDKGEAQWQETNLEHHHHHH
B11: PRT-574 (protein)
chain: MANQEIRYSEETPKTITSVWTKGVTPPTDFIYNEDVLHAPYIANQGWYDITKTFNGKDDLLCGAATAGNMLHWWFDQNKEQIERYLKKHPEKQKINFNGEQMFDVKEAIDTKDSQTNSKLFEYFKDKAFPYLSTKHLGVFPDHVIDMFINGYRLSLTNHGPTPVKEQTKDPRGGIFDAVFTRGDQSKLLTSRHDFKEKTLNEISDLIKQELTEGKALGLSHTYANVRINHVINLWGADFDAEGNLEAIYVTDSDSNASIGMKKYYVGVNSAGKVAISAKEIEGDNIGAQVLGLFTLSTGKDIWEQTNLEHHHHHH
B12: PRT-561 (protein)
chain: MANQEIRYSEETPSTITSVWTKGVTPPTQFIYNEDVFHAPYIANQGWYDITKTFNGKDDLLCGAATAGNMLHWWFDQNKEQIENYLKKHPEKQKINFNGEQMFDVKEAIDTKDSQTDSKLFNYFKDKAFPYLSTKHLGVFPDHVIDMFINGYRLSLTNHGPTPVKRQTKDPRGGIFDAVFTRGDQSKLLTSRHDFKEKTLNEISDLIKQELTEGKALGLSHTYANVRINHVINLWGADFDAEGNLEAIYVTDSDSNASIGMKKYYVGVNSAGKVAISAKEIEGDNIGAQVLGLFTLSTGQDIWQQTNLEHHHHHH
B13: PRT-581 (protein)
chain: MANQEIRYSKATPKTITSVWTKGVTPPENFIYNEDVLHAPYLANQGWYDITKTFNGKDDLLCGAATAGNMLHWWFDQNKEQIERYLKEHPEKQKINFNGEQMFDVKEAIDTKDSQTNSKLFEYFKDKAFPYLSTKHLGVFPDHVIDMFINGYRLSLTNHGPTPVKEQTKDPRGGIFDAVFTRGDQSKLLTSRHDFKEKTLNEISDLIKQELTEGKALGLSHTYANVRINHVINLWGADFDAEGNLEAIYVTDSDSNASIGMKKYYVGVNSAGKVAISAKEIEGDNIGAQVLGLFTLSTGKDIWEQTNLEHHHHHH

The data set deals with pooled human IgG (human IgG1, 2, 3 and 4).
The protein B1 returned an Enzyme Activity Endpoint Assay: Fab′2 of 654 ng/µL, an Enzyme Activity Endpoint Assay: Fc of 370 ng/µL, an Enzyme Activity Endpoint Assay: IgG of 0 ng/µL and an Enzyme Activity Endpoint Assay: scIgG of 0 ng/µL.
As to B2, the Enzyme Activity Endpoint Assay: Fab′2 worked out at 606 ng/µL, the Enzyme Activity Endpoint Assay: Fc worked out at 353 ng/µL, the Enzyme Activity Endpoint Assay: IgG stood at 97 ng/µL and the Enzyme Activity Endpoint Assay: scIgG turned out to be 0 ng/µL.
For B3, the Enzyme Activity Endpoint Assay: Fab′2 is 610 ng/µL, the Enzyme Activity Endpoint Assay: Fc turned out to be 376 ng/µL, the Enzyme Activity Endpoint Assay: IgG came to 55 ng/µL and the Enzyme Activity Endpoint Assay: scIgG came out at 0 ng/µL.
With B4, the Enzyme Activity Endpoint Assay: Fab′2 is 658 ng/µL, the Enzyme Activity Endpoint Assay: Fc was determined as 361 ng/µL, the Enzyme Activity Endpoint Assay: IgG is 0 ng/µL and the Enzyme Activity Endpoint Assay: scIgG worked out at 0 ng/µL.
B5 displayed an Enzyme Activity Endpoint Assay: Fab′2 of 14 ng/µL, an Enzyme Activity Endpoint Assay: Fc of 114 ng/µL, an Enzyme Activity Endpoint Assay: IgG of 354 ng/µL and an Enzyme Activity Endpoint Assay: scIgG of 691 ng/µL.
Protein B6 returned an Enzyme Activity Endpoint Assay: Fab′2 of 0 ng/µL, an Enzyme Activity Endpoint Assay: Fc of 142 ng/µL, an Enzyme Activity Endpoint Assay: IgG of 707 ng/µL and an Enzyme Activity Endpoint Assay: scIgG of 396 ng/µL.
B7 returned an Enzyme Activity Endpoint Assay: Fab′2 of 527 ng/µL, an Enzyme Activity Endpoint Assay: Fc of 359 ng/µL, an Enzyme Activity Endpoint Assay: IgG of 0 ng/µL and an Enzyme Activity Endpoint Assay: scIgG of 256 ng/µL.
B8 showed an Enzyme Activity Endpoint Assay: Fab′2 of 721 ng/µL, an Enzyme Activity Endpoint Assay: Fc of 389 ng/µL, an Enzyme Activity Endpoint Assay: IgG of 0 ng/µL and an Enzyme Activity Endpoint Assay: scIgG of 0 ng/µL.
The protein B9 showed an Enzyme Activity Endpoint Assay: Fab′2 of 930 ng/µL, an Enzyme Activity Endpoint Assay: Fc of 310 ng/µL, an Enzyme Activity Endpoint Assay: IgG of 0 ng/µL and an Enzyme Activity Endpoint Assay: scIgG of 0 ng/µL.
With B10, the Enzyme Activity Endpoint Assay: Fab′2 was 0 ng/µL, the Enzyme Activity Endpoint Assay: Fc worked out at 0 ng/µL, the Enzyme Activity Endpoint Assay: IgG is 1470 ng/µL and the Enzyme Activity Endpoint Assay: scIgG amounted to 0 ng/µL.
B11: the Enzyme Activity Endpoint Assay: Fab′2 was 660 ng/µL, the Enzyme Activity Endpoint Assay: Fc stood at 357 ng/µL, the Enzyme Activity Endpoint Assay: IgG was 0 ng/µL and the Enzyme Activity Endpoint Assay: scIgG is 227 ng/µL.
With B12, the Enzyme Activity Endpoint Assay: Fab′2 came to 606 ng/µL, the Enzyme Activity Endpoint Assay: Fc came to 405 ng/µL, the Enzyme Activity Endpoint Assay: IgG came to 0 ng/µL and the Enzyme Activity Endpoint Assay: scIgG turned out to be 0 ng/µL.
B13 displayed an Enzyme Activity Endpoint Assay: Fab′2 of 660 ng/µL, an Enzyme Activity Endpoint Assay: Fc of 365 ng/µL, an Enzyme Activity Endpoint Assay: IgG of 0 ng/µL and an Enzyme Activity Endpoint Assay: scIgG of 0 ng/µL.
